The record followed here is article PMC1475753.

The target in one series is T1, φ29 DNA polymerase K538A (bacteriophage φ29, UniProt P03680 1-575, K538A).
T1 sequence: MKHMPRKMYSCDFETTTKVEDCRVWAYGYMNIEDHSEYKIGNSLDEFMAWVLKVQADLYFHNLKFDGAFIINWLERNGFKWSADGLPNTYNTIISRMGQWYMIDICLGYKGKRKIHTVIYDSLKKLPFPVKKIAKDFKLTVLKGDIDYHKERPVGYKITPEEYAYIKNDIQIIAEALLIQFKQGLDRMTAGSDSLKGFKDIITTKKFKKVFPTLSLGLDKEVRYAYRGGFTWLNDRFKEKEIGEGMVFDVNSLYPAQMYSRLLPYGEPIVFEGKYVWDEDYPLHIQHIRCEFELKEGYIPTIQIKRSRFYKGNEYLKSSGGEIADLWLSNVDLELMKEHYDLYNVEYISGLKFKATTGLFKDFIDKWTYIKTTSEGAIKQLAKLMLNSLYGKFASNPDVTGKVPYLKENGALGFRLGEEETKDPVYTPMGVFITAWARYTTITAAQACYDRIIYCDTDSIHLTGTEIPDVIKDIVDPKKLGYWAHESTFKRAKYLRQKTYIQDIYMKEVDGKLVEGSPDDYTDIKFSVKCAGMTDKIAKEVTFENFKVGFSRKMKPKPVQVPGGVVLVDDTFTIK
Nature of the series: EMSA. (In general: Mobility shift assays separate free from complexed probe on a gel.)

The next series deals with T2, φ29 DNA polymerase T573A (bacteriophage φ29, UniProt P03680 1-575, T573A).
T2 sequence: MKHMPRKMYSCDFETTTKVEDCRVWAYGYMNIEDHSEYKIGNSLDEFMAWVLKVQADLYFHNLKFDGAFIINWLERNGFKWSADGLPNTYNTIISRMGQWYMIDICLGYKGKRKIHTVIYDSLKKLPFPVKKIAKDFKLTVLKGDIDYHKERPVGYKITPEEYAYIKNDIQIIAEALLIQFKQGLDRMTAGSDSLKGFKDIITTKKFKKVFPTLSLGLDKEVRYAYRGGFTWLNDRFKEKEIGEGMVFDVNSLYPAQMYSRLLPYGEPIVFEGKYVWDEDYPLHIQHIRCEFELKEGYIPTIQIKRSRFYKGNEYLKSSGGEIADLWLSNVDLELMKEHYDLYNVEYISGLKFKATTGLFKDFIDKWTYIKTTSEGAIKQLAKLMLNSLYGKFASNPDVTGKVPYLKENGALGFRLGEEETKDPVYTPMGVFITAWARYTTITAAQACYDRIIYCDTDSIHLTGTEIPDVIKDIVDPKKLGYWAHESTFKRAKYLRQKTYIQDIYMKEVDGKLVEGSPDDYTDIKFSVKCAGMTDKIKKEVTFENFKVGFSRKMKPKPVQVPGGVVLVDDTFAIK
Nature of the series: EMSA.

B1: sp1/sp1c+6 (15/21mer) (dsDNA)
DNA 1: GATCACAGTGAGTAC
DNA 2: TCTATTGTACTCACTGTGATC
With B1, the binding result with φ29 DNA polymerase K538A and with φ29 DNA polymerase T573A was “no binding” in each case.
